Results from patent publication US20150337049A1 (Genmab, published 2015).

The binders below were run against T1, C1q (from 3% pooled human serum) (human, UniProt P02745 23-245; P02746 28-253; P02747 29-245) (assay: ELISA, antibody coated, 3% pooled human serum, anti-C1q detection).
T1 construct: Native C1q of pooled human serum, detected with rabbit anti-human C1q
Method: Plates were washed and blocked with PBS supplemented with 0.025% Tween 20 and 0.1% gelatine. […] Detection was performed by addition of 1 mg/mL 2,2′-azino-bis(3-ethylbenzothiazoline-6-sulfonic acid) (ABTS; Roche, Mannheim, Germany) for about 30 min. The reaction was stopped by the addition of 100 μL 2% oxalic acid. Absorbance was measured at 405 nm in a microplate reader (Biotek, Winooski, Vt.). Log transformed data were analyzed by fitting sigmoidal dose-response curves with variable slope using GraphPad Prism software.

Binder | binding result
IgG1-CD3 (IgG1-huCLB-T3/4-F405L), wild-type Fc (antibody, also called wild-type IgG1-CD3; IgG1-huCLB-3/4) heavy: not shown VL: EIVLTQSPATLSLSPGERATLSCSASSSVTYVHWYQQKPGQAPRLLIYDTSKLASGIPARFSGSGSGTDFTLTISSLEPEDFAVYYCFQGSGYPLTFGSGTKLEMR | binds

What follows are binders tested against T2, HER2 on HER2-positive AU565 cells (human, UniProt P04626 23-1255) (assay: FACS, AU565 cells).
T2 construct: whole, on cells
Method: Cells (1×10^5 cells/well) were incubated in polystyrene 96-well round-bottom plates (Greiner bio-one 650101) with serial dilutions of antibody preparations (range 2 to 10000 ng/mL in 4-fold dilutions for Jurkat cells and range 1 to 3000 ng/mL in 4-fold dilutions for on AU565 cells) in 100 μL PBS/0.1% BSA/0.02% azide at 4° C. for 30 min.
After washing twice in PBS/0.1% BSA/0.02% azide, cells were incubated in 100 μL with secondary antibody at 4° C. for 30 min. As a secondary antibody, R-Phycoerythrin (PE)-conjugated goat-anti-human IgG F(ab′)₂ (109-116-098, Jackson ImmunoResearch Laboratories, Inc., West Grove, Pa.) diluted 1/100 in PBS/0.1% BSA/0.02% azide, was used for all experiments. Next, cells were washed twice in PBS/0.1% BSA/0.02% azide, resuspended in 150 μL PBS/0.1% BSA/0.02% azide and analyzed on a FACS CantoII (BD Biosciences). Binding curves were analyzed using non-linear regression (sigmoidal dose-response with variable slope) using GraphPad Prism V5.04 software (GraphPad Software, San Diego, Calif., USA).

Binder | binding result
IgG1-HER2 (IgG1-HER2-169-K409R), wild-type Fc (antibody) heavy: not shown VL: EIVLTQSPATLSLSPGERATLSCRASQSVSSYLAWYQQKPGQAPRLLIYDASNRATGIPARFSGSGSGTDFTLTISSLEPEDFAVYYCQQRSNWPRTFGQGTKVEIK | binds
IgG1-HER2-… (IgG1-HER2-169-K409R with L234F/L235E/D265A/N297Q/P331S) (antibody, IgG1, K409R) heavy: QVQLVQSGAEVKKPGASVKVSCKASGYTFTNYGISWVRQAPGQGLEWMGWLSAYSGNTIYAQKLQGRVTMTTDTSTTTAYMELRSLRSDDTAVYYCARDRIVVRPDYFDYWGQGTLVTVSSASTKGPSVFPLAPSSKSTSGGTAALGCLVKDYFPEPVTVSWNSGALTSGVHTFPAVLQSSGLYSLSSVVTVPSSSLGTQTYICNVNHKPSNTKVDKRVEPKSCDKTHTCPPCPAPEFEGGPSVFLFPPKPKDTLMISRTPEVTCVVVAVSHEDPEVKFNWYVDGVEVHNAKTKPREEQYQSTYRVVSVLTVLHQDWLNGKEYKCKVSNKALPASIEKTISKAKGQPREPQVYTLPPSREEMTKNQVSLTCLVKGFYPSDIAVEWESNGQPENNYKTTPPVLDSDGSFFLYSRLTVDKSRWQQGNVFSCSVMHEALHNHYTQKSLSLSPGK VL: EIVLTQSPATLSLSPGERATLSCRASQSVSSYLAWYQQKPGQAPRLLIYDASNRATGIPARFSGSGSGTDFTLTISSLEPEDFAVYYCQQRSNWPRTFGQGTKVEIK | binds
IgG1-HER2-N297Q (IgG1-HER2-169-K409R with N297Q) (antibody, IgG1, K409R; also called NQ) heavy: not shown VL: EIVLTQSPATLSLSPGERATLSCRASQSVSSYLAWYQQKPGQAPRLLIYDASNRATGIPARFSGSGSGTDFTLTISSLEPEDFAVYYCQQRSNWPRTFGQGTKVEIK | binds
IgG1-HER2-LFLEPS (IgG1-HER2-169-K409R with L234F/L235E/P331S) (antibody, IgG1, K409R) heavy: QVQLVQSGAEVKKPGASVKVSCKASGYTFTNYGISWVRQAPGQGLEWMGWLSAYSGNTIYAQKLQGRVTMTTDTSTTTAYMELRSLRSDDTAVYYCARDRIVVRPDYFDYWGQGTLVTVSSASTKGPSVFPLAPSSKSTSGGTAALGCLVKDYFPEPVTVSWNSGALTSGVHTFPAVLQSSGLYSLSSVVTVPSSSLGTQTYICNVNHKPSNTKVDKRVEPKSCDKTHTCPPCPAPEFEGGPSVFLFPPKPKDTLMISRTPEVTCVVVDVSHEDPEVKFNWYVDGVEVHNAKTKPREEQYNSTYRVVSVLTVLHQDWLNGKEYKCKVSNKALPASIEKTISKAKGQPREPQVYTLPPSREEMTKNQVSLTCLVKGFYPSDIAVEWESNGQPENNYKTTPPVLDSDGSFFLYSRLTVDKSRWQQGNVFSCSVMHEALHNHYTQKSLSLSPGK VL: EIVLTQSPATLSLSPGERATLSCRASQSVSSYLAWYQQKPGQAPRLLIYDASNRATGIPARFSGSGSGTDFTLTISSLEPEDFAVYYCQQRSNWPRTFGQGTKVEIK | binds
IgG1-HER2-LFLENQ (IgG1-HER2-169-K409R with L234F/L235E/N297Q) (antibody, IgG1, K409R) heavy: QVQLVQSGAEVKKPGASVKVSCKASGYTFTNYGISWVRQAPGQGLEWMGWLSAYSGNTIYAQKLQGRVTMTTDTSTTTAYMELRSLRSDDTAVYYCARDRIVVRPDYFDYWGQGTLVTVSSASTKGPSVFPLAPSSKSTSGGTAALGCLVKDYFPEPVTVSWNSGALTSGVHTFPAVLQSSGLYSLSSVVTVPSSSLGTQTYICNVNHKPSNTKVDKRVEPKSCDKTHTCPPCPAPEFEGGPSVFLFPPKPKDTLMISRTPEVTCVVVDVSHEDPEVKFNWYVDGVEVHNAKTKPREEQYQSTYRVVSVLTVLHQDWLNGKEYKCKVSNKALPAPIEKTISKAKGQPREPQVYTLPPSREEMTKNQVSLTCLVKGFYPSDIAVEWESNGQPENNYKTTPPVLDSDGSFFLYSRLTVDKSRWQQGNVFSCSVMHEALHNHYTQKSLSLSPGK VL: EIVLTQSPATLSLSPGERATLSCRASQSVSSYLAWYQQKPGQAPRLLIYDASNRATGIPARFSGSGSGTDFTLTISSLEPEDFAVYYCQQRSNWPRTFGQGTKVEIK | binds
IgG1-HER2-DAPS (IgG1-HER2-169-K409R with D265A/P331S) (antibody, IgG1, K409R) heavy: QVQLVQSGAEVKKPGASVKVSCKASGYTFTNYGISWVRQAPGQGLEWMGWLSAYSGNTIYAQKLQGRVTMTTDTSTTTAYMELRSLRSDDTAVYYCARDRIVVRPDYFDYWGQGTLVTVSSASTKGPSVFPLAPSSKSTSGGTAALGCLVKDYFPEPVTVSWNSGALTSGVHTFPAVLQSSGLYSLSSVVTVPSSSLGTQTYICNVNHKPSNTKVDKRVEPKSCDKTHTCPPCPAPELLGGPSVFLFPPKPKDTLMISRTPEVTCVVVAVSHEDPEVKFNWYVDGVEVHNAKTKPREEQYNSTYRVVSVLTVLHQDWLNGKEYKCKVSNKALPASIEKTISKAKGQPREPQVYTLPPSREEMTKNQVSLTCLVKGFYPSDIAVEWESNGQPENNYKTTPPVLDSDGSFFLYSRLTVDKSRWQQGNVFSCSVMHEALHNHYTQKSLSLSPGK VL: EIVLTQSPATLSLSPGERATLSCRASQSVSSYLAWYQQKPGQAPRLLIYDASNRATGIPARFSGSGSGTDFTLTISSLEPEDFAVYYCQQRSNWPRTFGQGTKVEIK | binds
IgG1-HER2-DANQ (IgG1-HER2-169-K409R with D265A/N297Q) (antibody, IgG1, K409R) heavy: QVQLVQSGAEVKKPGASVKVSCKASGYTFTNYGISWVRQAPGQGLEWMGWLSAYSGNTIYAQKLQGRVTMTTDTSTTTAYMELRSLRSDDTAVYYCARDRIVVRPDYFDYWGQGTLVTVSSASTKGPSVFPLAPSSKSTSGGTAALGCLVKDYFPEPVTVSWNSGALTSGVHTFPAVLQSSGLYSLSSVVTVPSSSLGTQTYICNVNHKPSNTKVDKRVEPKSCDKTHTCPPCPAPELLGGPSVFLFPPKPKDTLMISRTPEVTCVVVAVSHEDPEVKFNWYVDGVEVHNAKTKPREEQYQSTYRVVSVLTVLHQDWLNGKEYKCKVSNKALPAPIEKTISKAKGQPREPQVYTLPPSREEMTKNQVSLTCLVKGFYPSDIAVEWESNGQPENNYKTTPPVLDSDGSFFLYSRLTVDKSRWQQGNVFSCSVMHEALHNHYTQKSLSLSPGK VL: EIVLTQSPATLSLSPGERATLSCRASQSVSSYLAWYQQKPGQAPRLLIYDASNRATGIPARFSGSGSGTDFTLTISSLEPEDFAVYYCQQRSNWPRTFGQGTKVEIK | binds
IgG1-HER2-LFLE (IgG1-HER2-169-K409R with L234F/L235E) (antibody, IgG1, K409R) heavy: QVQLVQSGAEVKKPGASVKVSCKASGYTFTNYGISWVRQAPGQGLEWMGWLSAYSGNTIYAQKLQGRVTMTTDTSTTTAYMELRSLRSDDTAVYYCARDRIVVRPDYFDYWGQGTLVTVSSASTKGPSVFPLAPSSKSTSGGTAALGCLVKDYFPEPVTVSWNSGALTSGVHTFPAVLQSSGLYSLSSVVTVPSSSLGTQTYICNVNHKPSNTKVDKRVEPKSCDKTHTCPPCPAPEFEGGPSVFLFPPKPKDTLMISRTPEVTCVVVDVSHEDPEVKFNWYVDGVEVHNAKTKPREEQYNSTYRVVSVLTVLHQDWLNGKEYKCKVSNKALPAPIEKTISKAKGQPREPQVYTLPPSREEMTKNQVSLTCLVKGFYPSDIAVEWESNGQPENNYKTTPPVLDSDGSFFLYSRLTVDKSRWQQGNVFSCSVMHEALHNHYTQKSLSLSPGK VL: EIVLTQSPATLSLSPGERATLSCRASQSVSSYLAWYQQKPGQAPRLLIYDASNRATGIPARFSGSGSGTDFTLTISSLEPEDFAVYYCQQRSNWPRTFGQGTKVEIK | binds
IgG1-HER2-DA (IgG1-HER2-169-K409R with D265A) (antibody, IgG1, K409R) heavy: not shown VL: EIVLTQSPATLSLSPGERATLSCRASQSVSSYLAWYQQKPGQAPRLLIYDASNRATGIPARFSGSGSGTDFTLTISSLEPEDFAVYYCQQRSNWPRTFGQGTKVEIK | binds
IgG1-HER2-LALA (IgG1-HER2-169-K409R with L234A/L235A) (antibody, IgG1, K409R) heavy: QVQLVQSGAEVKKPGASVKVSCKASGYTFTNYGISWVRQAPGQGLEWMGWLSAYSGNTIYAQKLQGRVTMTTDTSTTTAYMELRSLRSDDTAVYYCARDRIVVRPDYFDYWGQGTLVTVSSASTKGPSVFPLAPSSKSTSGGTAALGCLVKDYFPEPVTVSWNSGALTSGVHTFPAVLQSSGLYSLSSVVTVPSSSLGTQTYICNVNHKPSNTKVDKRVEPKSCDKTHTCPPCPAPEAAGGPSVFLFPPKPKDTLMISRTPEVTCVVVDVSHEDPEVKFNWYVDGVEVHNAKTKPREEQYNSTYRVVSVLTVLHQDWLNGKEYKCKVSNKALPAPIEKTISKAKGQPREPQVYTLPPSREEMTKNQVSLTCLVKGFYPSDIAVEWESNGQPENNYKTTPPVLDSDGSFFLYSRLTVDKSRWQQGNVFSCSVMHEALHNHYTQKSLSLSPGK VL: EIVLTQSPATLSLSPGERATLSCRASQSVSSYLAWYQQKPGQAPRLLIYDASNRATGIPARFSGSGSGTDFTLTISSLEPEDFAVYYCQQRSNWPRTFGQGTKVEIK | binds
IgG1-HER2-LFLEDA (IgG1-HER2-169-K409R with L234F/L235E/D265A) (antibody, name in EU numbering, IgG1, K409R) heavy: QVQLVQSGAEVKKPGASVKVSCKASGYTFTNYGISWVRQAPGQGLEWMGWLSAYSGNTIYAQKLQGRVTMTTDTSTTTAYMELRSLRSDDTAVYYCARDRIVVRPDYFDYWGQGTLVTVSSASTKGPSVFPLAPSSKSTSGGTAALGCLVKDYFPEPVTVSWNSGALTSGVHTFPAVLQSSGLYSLSSVVTVPSSSLGTQTYICNVNHKPSNTKVDKRVEPKSCDKTHTCPPCPAPEFEGGPSVFLFPPKPKDTLMISRTPEVTCVVVAVSHEDPEVKFNWYVDGVEVHNAKTKPREEQYNSTYRVVSVLTVLHQDWLNGKEYKCKVSNKALPAPIEKTISKAKGQPREPQVYTLPPSREEMTKNQVSLTCLVKGFYPSDIAVEWESNGQPENNYKTTPPVLDSDGSFFLYSRLTVDKSRWQQGNVFSCSVMHEALHNHYTQKSLSLSPGK VL: EIVLTQSPATLSLSPGERATLSCRASQSVSSYLAWYQQKPGQAPRLLIYDASNRATGIPARFSGSGSGTDFTLTISSLEPEDFAVYYCQQRSNWPRTFGQGTKVEIK | binds
